# Patent publication US20140154243A1 (Amgen, published 2014)
# Changes are numbered by the printed parent chain.
# B1: antibody 1.60.1 (antibody, human IgG2, kappa, V domains shown)
# VH: QVQLVQSGAEVKKPGASVKVSCKASGYTFTGYYINWVRQAPGQGLEWMGWINPNSGGTNYAQKFQGRVTMTRDTSITTAYMELSRLRADDTAVYYCARELELRYYGMDVWGQGTTVTVSS
# VL: DIQMTQSPSSLSVSVGDRVTITCRASQGISSYLAWYQQKPGKVPKLLIYVASTLQSGVPSRFSGSGSGTDFTLTISSLQPEDVATYYCQNYNSDPLTFGGGTKVEIKR
# notes: also called antibody to HGF ultimately derived from hybridoma 1.60.1
# B2: antibody 1.24.1 (antibody, human IgG2, kappa, V domains shown)
# VH: QVQLVESGGGLVKPGGSLRLSCAASGFTFSDYYMSWIRQAPGKGLEWVSYISSSGSTIYYADSVKGRFTISRDNAKNSLYLQMNSLRAEDTAVYYCARDEYNSGWYVLFDYWGQGTLVTVSS
# VL: DIQMTQSPSSVSASVGDRVTITCRASQGISSWLAWYQQKPGKAPNLLIYEASSLQSGVPSRFGGSGSGTDFTLTISSLQPEDFATYYCQQANGFPWTFGQGTKVEIKR
# notes: also called antibody to HGF ultimately derived from hybridoma 1.24.1
# B3: antibody 3.10.1 (antibody, human IgG1, kappa, V domains shown)
# VH: QVQLQQWGAGLLKPSETLSLTCAVYGGSFSTYYWSWIRQPPGKGLEWIGEINHSGSTNYNPSLKSRVTISVDTSKNQFSLKLSSVTAADTAVYYCARGGYDFWSGYYDYWGQGTLVTVSS
# VL: not shown
# notes: also called antibody to HGF ultimately derived from hybridoma 3.10.1
# B4: antibody 1.74.3 (antibody, human IgG2, kappa, V domains shown)
# VH: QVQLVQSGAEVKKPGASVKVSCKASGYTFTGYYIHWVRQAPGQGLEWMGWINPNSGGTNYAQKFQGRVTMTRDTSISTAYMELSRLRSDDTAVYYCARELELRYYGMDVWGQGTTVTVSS
# VL: DIQMTQSPSSLSASVGDRVTITCRASQSINSDLNWYQQKPGKVPKLLIYVASSLQNGVPSRFSGSGSGTDFTLTISSLQPEDFATYYCQRSYSTPPTFGPGTKVDIKR
# notes: also called 1.74.1; 1.74.2
# B5: antibody 1.61.3 (antibody, human IgG2, kappa, V domains shown)
# VH: QVQLQESGPGLVKPSQTLSLTCTVSGGSISSDGYYWSWIRQHPGKGLEWIGYIYYSGSTYYNPSLKSRVTISVDTSKNQFSLKLSSVTAADTAVYYCARSHLHYYDSSGYYYGGAFDIWGQGTMVTVSS
# VL: DIQMTQSPSSLSASVGDRVTITCQASQDISNYLNWYQQKPGTAPKLLIYGASDLETGVPSRFSGSGSGTDFTFAISSLQPEDIATYYCQQYDNLPYNFGQGTKLEIKR
# notes: also called antibody to HGF ultimately derived from hybridoma 1.61.3
# B6: antibody 1.29.1 (antibody, human IgG2, kappa, V domains shown)
# VH: QVQLVESGGGVVQPGRSLRLSCAASGFTFSSYGMHWVRQAPGKGLEWVAVIWYDGSDKYYADSVKGRFTISRDNSKNTLYLQMNSLRAEDTAVYYCAREDYGEGFDYWGQGTLVTVSS
# VL: not shown
# notes: also called antibody to HGF ultimately derived from hybridoma 1.29.1
# B7: antibody 1.75.1 (antibody, human IgG2, kappa, V domains shown)
# VH: QVQLQESGPGLVKPSQTLSLTCTVSGGSISSGGYYWSWIRQHPGKGLEWIGYIYYSGSTYYNPSLKSRVTISVDTSKNQFSLKVSSVTAADTAVYYCARDPLWFGEFDYYGMDVWGQGTTVTVSS
# VL: DIQMTQSPSSLSASVGDRVTITCRASQGIRNDLGWFQQKPGKAPKRLIYAASSLQSGVPSRFSGSGSGTEFTLTISSLQPEDFATYYCLQHDSYPLTFGGGTKVEIKR
# notes: also called antibody to HGF ultimately derived from hybridoma 1.75.1
# B8: antibody 2.40.1 (antibody, human IgG2, kappa, V domains shown)
# VH: QVQLQESGPGLVKPSQTLSLTCTVSGGSISSGGYYWSWIRQHPGKGLEWIGNIYYSGITYYNPSLKSRVTMSVDTSKNQFSLKLSSVTAADTAVYYCARDPLYGDYGFDPWGQGTLVTVSS
# VL: B7 VL with F36Y, A50V, D92N
# notes: also called antibody to HGF ultimately derived from hybridoma 2.40.1
# Biological target: T1, human hepatocyte growth factor (HGF) (human, UniProt P14210 32-728)
# T1 sequence (P14210 32-728 limits assumed): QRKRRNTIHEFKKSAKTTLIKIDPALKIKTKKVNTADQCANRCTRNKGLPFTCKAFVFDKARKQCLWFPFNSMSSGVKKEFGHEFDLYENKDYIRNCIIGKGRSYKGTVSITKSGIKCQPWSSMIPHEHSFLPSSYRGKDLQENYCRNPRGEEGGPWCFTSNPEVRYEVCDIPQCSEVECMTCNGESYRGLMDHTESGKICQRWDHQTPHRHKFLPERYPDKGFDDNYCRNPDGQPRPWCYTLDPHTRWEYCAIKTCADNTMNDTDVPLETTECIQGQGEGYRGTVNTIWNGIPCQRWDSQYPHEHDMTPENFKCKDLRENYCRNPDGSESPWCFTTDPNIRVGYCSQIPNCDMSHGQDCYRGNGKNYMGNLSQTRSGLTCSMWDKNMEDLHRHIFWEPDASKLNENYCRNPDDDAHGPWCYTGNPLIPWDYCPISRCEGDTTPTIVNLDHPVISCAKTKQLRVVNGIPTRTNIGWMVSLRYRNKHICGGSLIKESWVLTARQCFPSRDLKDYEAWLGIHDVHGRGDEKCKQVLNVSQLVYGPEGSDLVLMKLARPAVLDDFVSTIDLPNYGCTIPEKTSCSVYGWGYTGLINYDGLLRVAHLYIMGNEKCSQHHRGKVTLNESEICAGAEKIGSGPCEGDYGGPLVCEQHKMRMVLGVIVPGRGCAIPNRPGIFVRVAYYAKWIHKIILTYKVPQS
# Assay: cell-based or functional assay
row,Binder,"IC50, inhibition of growth/survival of U-87 MG cells [nM]"
1,B1,< 100
2,B2,< 100
3,B3,< 100
4,B4,< 100
5,B5,< 100
6,B6,< 100
7,B7,< 100
8,B8,< 100

# Biological target: T2, mouse HGF (mouse, UniProt Q08048 33-728)
# T2 construct: also called recombinant mouse HGF; mHGF
# T2 sequence (Q08048 33-728 limits assumed): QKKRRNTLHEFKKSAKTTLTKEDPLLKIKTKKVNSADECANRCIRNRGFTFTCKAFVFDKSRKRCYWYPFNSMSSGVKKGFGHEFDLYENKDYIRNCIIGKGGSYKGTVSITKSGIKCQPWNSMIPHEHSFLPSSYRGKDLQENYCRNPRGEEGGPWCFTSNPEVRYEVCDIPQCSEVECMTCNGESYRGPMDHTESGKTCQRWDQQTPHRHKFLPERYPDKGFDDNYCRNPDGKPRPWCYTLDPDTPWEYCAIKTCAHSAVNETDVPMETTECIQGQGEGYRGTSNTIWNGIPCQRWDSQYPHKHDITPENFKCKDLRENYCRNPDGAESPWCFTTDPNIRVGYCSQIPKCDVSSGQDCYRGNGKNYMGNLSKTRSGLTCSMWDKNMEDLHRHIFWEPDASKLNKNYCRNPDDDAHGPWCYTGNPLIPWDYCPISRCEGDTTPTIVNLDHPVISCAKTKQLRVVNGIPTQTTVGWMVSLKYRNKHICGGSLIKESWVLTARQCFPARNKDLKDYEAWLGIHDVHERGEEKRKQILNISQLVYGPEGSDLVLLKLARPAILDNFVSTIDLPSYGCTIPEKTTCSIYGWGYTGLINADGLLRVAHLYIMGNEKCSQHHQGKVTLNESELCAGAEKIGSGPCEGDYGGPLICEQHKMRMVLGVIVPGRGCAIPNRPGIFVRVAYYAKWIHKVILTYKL
# Assay: Western blot, non-reducing and reducing SDS-PAGE
# Protocol: Human HGF and mouse HGF were run on separate lanes of SDS PAGE gels. Human HGF and mouse HGF were each separately run at 100 ng/lane and at 10 ng/lane. Some gels were run under non-reducing conditions and other separate gels were run under reducing conditions using beta-mercaptoethanol. The human HGF and mouse HGF in the SDS PAGE gels were transferred to nitrocellulose membranes. Those membranes were separately incubated with one of the ten antibodies to HGF described in Example 6. Each of the ten antibodies to HGF was separately incubated with nitrocellulose membranes from gels containing human HGF and mouse HGF under reducing and with nitrocellulose membranes from gels containing human HGF and mouse HGF under non-reducing conditions. The membranes were then incubated with a goat anti-human IgG antibody linked to HRP (Pierce, Rockford, Ill., Cat. #31412). Signal from that goat anti-human IgG antibody linked to HRP was detected by […] (ECL™; Amersham Pharmacia Biotech, Piscataway, N.J., Cat. # RPN₂₁₀₆) following the manufacturer's instructions.
row,Binder,binding result
1,B1,no binding (tested: 100 ng and 10 ng per lane)
2,B2,no binding (tested: 100 ng and 10 ng per lane)
3,B5,no binding (tested: 100 ng and 10 ng per lane)
4,B6,no binding (tested: 100 ng and 10 ng per lane)
5,B7,no binding (tested: 100 ng and 10 ng per lane)
6,B8,no binding (tested: 100 ng and 10 ng per lane)

# Biological target: T1, human hepatocyte growth factor (HGF)
# Assay: BIAcore 3000, kinetic method: antibody captured on immobilized Protein G, human HGF (0-100 nM) injected
# Source text: The running buffer for those analyses was PBS with 0.005% P20 surfactant (BIAcore, Inc. Piscataway, N.J.). Recombinant Protein G (Pierce, Rockford, Ill.) was immobilized to a research grade CM5 sensor chip (Biacore, Inc. Piscataway, N.J.) via primary amine groups using the Amine Coupling Kit (Biacore, Inc. Piscataway, N.J.), according to the manufacturer's instructions.
# In six separate samples, about 200 resonance units (RU) of each of the six antibodies to HGF was separately attached to immobilized Protein G following the manufacturer's instructions. Samples comprising various concentrations (0-100 nM) of human HGF were injected over the bound antibody surface at a flow rate of 50 μl/min for 3 minutes. Antibody binding kinetic parameters including kₐ (association rate constant), kd (dissociation rate constant), and KD (dissociation equilibrium constant) were determined using the BIA evaluation 3.1 computer program (BIAcore, Inc. Piscataway, N.J.). Lower dissociation equilibrium constants indicate greater affinity of the antibody for HGF.
Kd [nM],koff [s⁻¹],kon [M⁻¹ s⁻¹],Binder
~0.47,3e-05,65000,B3
~0.36,4.7e-05,130000,B4
~0.79,4.8e-05,62000,B6
~0.78,2.8e-05,36000,B7

# Biological target: T1, human hepatocyte growth factor (HGF)
# Assay: BIAcore 3000, equilibrium/solution method: antibody (0.01-50 nM) incubated with human HGF (0.05 nM and 1 nM), free HGF measured on a chip carrying the same antibody
# Protocol: That method was performed with a BIAcore®3000 (Biacore, Inc., Piscataway, N.J.) using PBS with 0.005% P20 surfactant (BIAcore, Inc. Piscataway, N.J.) as running buffer. The four antibodies to HGF were separately immobilized to research grade CM5 sensor chips (Biacore, Inc. Piscataway, N.J.) via primary amine groups using an Amine Coupling Kit (Biacore, Inc. Piscataway, N.J.) following the manufacturer's instructions.
# In separate assays, each of the four antibodies to HGF, over a range of concentrations (from 0.01 nM to 50 nM) was separately incubated with each of two different concentrations (0.05 nM and 1 nM) of human HGF in PBS with 0.005% P-20 and 0.1 mg/mL BSA at room temperature for at least six hours. Each of those samples was then injected over a surface of a CM5 sensor chip onto which the same antibody to HGF had been immobilized. The binding signal obtained was proportional to the free HGF in solution. The dissociation equilibrium constant (KD) was obtained from nonlinear regression analysis of the competition curves using a dual-curve one-site homogeneous binding model (KinExA software, Sapidyne Instruments Inc., Boise Id.).
row,Kd [nM],Binder
1,0.041,B4
2,0.034,B6

# Biological target: T2, mouse HGF
# Assay: FACS bead assay: antibody incubated with the avidin fusion of mouse HGF, captured on biotin-coated beads; FITC anti-avidin (x) against PE goat anti-human F(ab')2 (y)
# Protocol: After incubation, the fusion proteins in each sample were separately captured using biotin-coated beads (Spherotech Inc., Libertyville, Ill., Cat # TP-60-5). The resulting bead-protein complexes were labeled by adding FITC labeled anti-avidin antibody (Vector Lab, Burlingame, Calif., Cat. # SP-2040). The presence of antibodies to HGF was determined by adding phycoerythrin (PE) labeled goat anti-human F(ab′)2 antibody (Southern Biotech Associates, Inc, Birmingham, Ala., Cat #2043-09).
# Those samples were then subjected to Fluorescence Activated Cell Sorter (FACS) analysis. Bead complexes labeled by FITC (which indicated the presence of avidin) and/or PE (which indicated the presence of antibody to HGF) were detected on a Becton Dickinson Bioscience FACScan (BD, Franklin Lakes, N.J.).
row,binding result,Binder
1,no binding,B3
2,no binding,B4

# Biological target: T1, human hepatocyte growth factor (HGF)
# Assay: neutralization ELISA (left table): inhibition of the binding of soluble Met (2 nM) to plate-coated HGF, detected with biotinylated anti-cMetR antibody and Eu-streptavidin; column head 'IC50 IP (nM)'
# Protocol: (§1) A neutralization ELISA assay was developed to assess whether the antibodies discussed in Example 6 could interrupt Met-HGF binding. Delphia 96-well plates (Cat#: AAAND-0001, Wallac Inc., Gaithersburg, Md.) were coated with HGF by adding 100 μl of HGF at 6.25 μg/ml per well. The plates were incubated at 37° C. for 1 hour or at 4° C. overnight. The plates were then blocked with 5% BSA (Cat#50-61-00, KPL, Gaithersburg, Md.) in PBS containing 0.1% Tween 20 for 1 hour at room temperature with shaking.
# (§2) Test samples were prepared by separately mixing soluble Met (2 nM, 0.256 μg/ml) with different concentrations of a particular antibody to HGF being tested. The concentrations tested were: 667 nM, 223 nM, 74.1 nM, 24.7 nM, 8.2 nM, 2.7 nM, 0.91 nM, 0.30 nM, 0.10 nM, and 0.034 nM. A volume of 100 μl of a test sample was added to each well of the plates. The plates were then incubated at 4° C. overnight and then washed 4 times with PBS containing 0.1% Tween 20. Next, 100 μl per well of Biotinylated anti-cMetR antibody (Cat#: BAF358, R&D Systems Inc., Minneapolis, Minn.) at 2 μg/ml, was added. […] The plates were then incubated for 2 hours with shaking, and were washed 4 times with PBS containing 0.1% Tween 20. Eu-streptavidin (1:1000 dilution in Assay buffer) (Cat#1244-360, Wallac Inc., Gaithersburg, Md.) was added and the plates were shaken at room temperature for 1 hour. The plates were then washed 4 times with PBS containing 0.1% Tween 20. Next, 100 μl of enhancement buffer (Wallac Inc., Cat#: 1244-105, Gaithersburg, Md.) was added. After at least for 5 minutes, the plates were read using Europium method on Victor 2 (1420 Multilabel Counter, Wallac Inc., Gaithersburg, Md.).
# (§3) Percent inhibition of Met binding to HGF (i.e. neutralization) was calculated and IC₅₀ values were determined using the 4 parameter fit equation Excelfit, Version 2.0.6, (Microsoft Inc, Seattle, Wash.). In the presence of the antibodies to HGF discussed in Examples 6, Met binding to HGF was neutralized.
row,IC50 [nM],Binder
1,2.6,B2
2,0.9,B3
3,3.7,B4
4,3.2,B6
5,1,B7
6,1,B8

# Biological target: T1, human hepatocyte growth factor (HGF)
# Assay: neutralization ELISA (right table): inhibition of the binding of soluble Met (2 nM) to plate-coated HGF, detected with biotinylated anti-cMetR antibody and Eu-streptavidin; column head 'IC50 IP (nM)'
# Protocol: as §1, §2, §3
row,IC50 [nM],Binder
1,9.36,B2
2,0.37,B3
3,2.31,B4
4,2.59,B5
5,1.93,B6
6,0.72,B7
